For this test, the target named is T1, ヒトeIF5Aタンパクの(44−72番目)のアミノ酸残基から成るペプチド (human, UniProt P63241 44-72).
T1 construct: range 44-72; The peptide was coupled to KLH for immunisation; also called human eIF5A (44-72) peptide
The experiment in a line: ELISA screening of hybridoma monoclonal antibodies. A general note: ELISA stands for enzyme-linked immunosorbent assay.

One molecule from JP2021155343A (dated 2021) can be followed below.

T1 sequence (P63241 44-72 limits assumed): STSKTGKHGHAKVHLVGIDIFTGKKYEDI

B1: 抗ORAIP抗体(クローン YSP5−45−36) (antibody, V domains shown)
VH: EVKLVESGGGLVQPGGSLRLSCATSGFTFTDYYMSWARQPPGKALEWLGFIRNKANGYTTEYSASVKGRFTISRDNSLGILYLQMNTLRPEDSATYYCARNYYGTSFSWFAYWGQGTLVTVSA
VL: MTQTPLSLSVSLGDQASISCRSSQSIVHFNGNTYLEWYLQKPGQSPKLLIYKVSSRFSGVPDRFSGSGSGTDFTLKISRVEAEDLGVYYCFQGSHVPPTFGGGTKLEIK
notes: Mouse monoclonal antibody from a hybridoma (mouse spleen cells fused with mouse myeloma cells); also called モノクローナル抗体(クローン YSP5−45−36); clone YSP5-45-36
With B1, the binding result was “binds”.
